Measurements: article PMC3954793, “SHP-2 Binds to Caveolin-1 and Regulates Src Activity via Competitive Inhibition of CSK in Response to H2O2 in Astrocytes” (PLoS ONE, 2014)

Key:
CSK = CSK (UniProt P41240); assay: PepSPOT peptide array overlay; conditions: reference: nonphosphorylated 13-mer peptides; sites Y14
SHP-2 = SHP-2 (UniProt Q06124); assay: PepSPOT peptide array overlay; conditions: reference: nonphosphorylated 13-mer peptides; sites Y14

## caveolin-1 13-mers within 1-28 (from UniProt Q03135) pY14 13-mer peptides
CSK
  binding against the reference: stronger
SHP-2
  binding against the reference: stronger
